In paper PMC11433124:

Target: hRTL (Chondrilla australiensis tetramer lectin) (Chondrilla australiensis)
Test: SEC + other: SDS-PAGE; gel permeation chromatography on Shodex KW 402.5-4F (HPLC, 0.33 mL/min) in 50 mM sodium bicarbonate in saline, 60 kDa; SDS-PAGE under non-reducing conditions after 3 min or 20 min heating at 80 °C, 66 kDa and 18 kDa; subunit mass 15,521.11 Da by MALDI-TOF-MS

stoichiometry N: 4
Substance: hRTL (Chondrilla australiensis tetramer lectin) (natural protein)
